Source: patent US20090098111

Legend:
[1] = system: GST-XtopBP1 (972-1279) ΔWDDP
[2] = system: GST-XtopBP1 (972-1279)-W1138R
[3] = system: GST-XtopBP1 (972-1279) ΔRQLQ
[4] = system: His6-XtopBP1 (full-length)
[5] = system: His6-XtopBP1-W1138R (full-length)

Sequence of Xatr (endogenous Xenopus ATR in egg extracts) (chain, as listed by the source): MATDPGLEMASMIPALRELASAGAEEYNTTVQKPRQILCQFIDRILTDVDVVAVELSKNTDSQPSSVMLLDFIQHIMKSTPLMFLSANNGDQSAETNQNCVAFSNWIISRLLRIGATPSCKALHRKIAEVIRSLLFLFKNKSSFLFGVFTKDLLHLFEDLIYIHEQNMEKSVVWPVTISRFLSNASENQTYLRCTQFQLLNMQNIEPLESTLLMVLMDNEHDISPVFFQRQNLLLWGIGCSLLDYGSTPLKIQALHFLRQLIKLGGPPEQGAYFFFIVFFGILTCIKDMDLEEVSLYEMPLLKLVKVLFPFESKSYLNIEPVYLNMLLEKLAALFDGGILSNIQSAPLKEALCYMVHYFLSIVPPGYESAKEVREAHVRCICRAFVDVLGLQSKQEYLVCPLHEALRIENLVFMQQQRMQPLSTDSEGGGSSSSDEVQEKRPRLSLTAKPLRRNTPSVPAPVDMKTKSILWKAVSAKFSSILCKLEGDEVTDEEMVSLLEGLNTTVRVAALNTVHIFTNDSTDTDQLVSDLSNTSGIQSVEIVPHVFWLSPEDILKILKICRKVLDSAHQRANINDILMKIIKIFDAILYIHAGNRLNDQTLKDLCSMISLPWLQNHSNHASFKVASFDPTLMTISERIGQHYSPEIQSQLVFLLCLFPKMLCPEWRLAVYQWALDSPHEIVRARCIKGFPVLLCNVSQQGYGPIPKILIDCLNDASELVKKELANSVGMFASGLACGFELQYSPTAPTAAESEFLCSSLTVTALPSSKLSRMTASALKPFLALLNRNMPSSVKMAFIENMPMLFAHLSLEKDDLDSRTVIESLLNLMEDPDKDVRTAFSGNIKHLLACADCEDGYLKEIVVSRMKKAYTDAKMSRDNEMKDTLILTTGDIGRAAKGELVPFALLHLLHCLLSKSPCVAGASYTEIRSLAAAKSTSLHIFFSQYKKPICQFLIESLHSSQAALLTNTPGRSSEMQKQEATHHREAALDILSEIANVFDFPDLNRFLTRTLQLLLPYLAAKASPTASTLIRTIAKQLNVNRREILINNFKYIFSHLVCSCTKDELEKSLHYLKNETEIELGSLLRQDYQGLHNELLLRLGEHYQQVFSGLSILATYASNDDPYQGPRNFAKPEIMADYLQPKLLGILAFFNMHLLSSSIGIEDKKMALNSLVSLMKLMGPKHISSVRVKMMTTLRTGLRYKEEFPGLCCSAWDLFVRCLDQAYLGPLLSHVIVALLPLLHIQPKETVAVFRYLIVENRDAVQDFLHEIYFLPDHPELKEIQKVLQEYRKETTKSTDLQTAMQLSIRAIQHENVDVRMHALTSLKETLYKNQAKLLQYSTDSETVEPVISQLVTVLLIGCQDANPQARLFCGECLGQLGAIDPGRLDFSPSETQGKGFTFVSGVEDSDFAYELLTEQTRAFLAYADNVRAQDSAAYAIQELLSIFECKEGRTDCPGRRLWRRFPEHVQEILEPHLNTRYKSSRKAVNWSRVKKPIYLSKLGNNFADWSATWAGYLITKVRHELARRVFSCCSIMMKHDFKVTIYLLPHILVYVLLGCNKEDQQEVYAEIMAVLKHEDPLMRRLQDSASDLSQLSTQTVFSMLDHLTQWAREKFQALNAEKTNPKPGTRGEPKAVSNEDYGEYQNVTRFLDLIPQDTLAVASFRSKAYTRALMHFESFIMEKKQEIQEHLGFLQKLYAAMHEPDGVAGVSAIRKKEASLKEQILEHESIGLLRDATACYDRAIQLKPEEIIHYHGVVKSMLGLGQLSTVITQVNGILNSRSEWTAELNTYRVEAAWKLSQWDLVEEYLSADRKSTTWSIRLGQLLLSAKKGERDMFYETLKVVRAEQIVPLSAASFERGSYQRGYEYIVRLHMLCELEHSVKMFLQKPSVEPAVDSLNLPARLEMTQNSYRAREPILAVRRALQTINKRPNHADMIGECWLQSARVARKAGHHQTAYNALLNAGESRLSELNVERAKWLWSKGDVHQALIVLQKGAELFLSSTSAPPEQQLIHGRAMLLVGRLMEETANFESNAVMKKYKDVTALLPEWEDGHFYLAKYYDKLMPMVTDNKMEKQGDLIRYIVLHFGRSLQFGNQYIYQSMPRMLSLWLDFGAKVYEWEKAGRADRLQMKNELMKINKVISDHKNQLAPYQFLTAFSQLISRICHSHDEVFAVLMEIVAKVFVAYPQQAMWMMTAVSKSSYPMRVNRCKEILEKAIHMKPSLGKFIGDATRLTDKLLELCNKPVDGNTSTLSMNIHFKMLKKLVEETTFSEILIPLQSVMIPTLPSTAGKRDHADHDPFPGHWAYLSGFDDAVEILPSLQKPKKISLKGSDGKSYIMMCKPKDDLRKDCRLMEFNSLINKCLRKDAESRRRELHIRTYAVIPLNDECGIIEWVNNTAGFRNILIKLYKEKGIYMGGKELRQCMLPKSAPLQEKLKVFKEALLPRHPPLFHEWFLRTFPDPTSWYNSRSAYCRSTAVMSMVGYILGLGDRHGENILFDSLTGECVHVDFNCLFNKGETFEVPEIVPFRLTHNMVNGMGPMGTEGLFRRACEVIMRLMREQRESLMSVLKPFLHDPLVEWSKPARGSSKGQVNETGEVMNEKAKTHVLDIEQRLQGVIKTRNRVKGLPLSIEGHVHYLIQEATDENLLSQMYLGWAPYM
Sequence of His6-XtopBP1 (full-length) (chain, as listed by the source): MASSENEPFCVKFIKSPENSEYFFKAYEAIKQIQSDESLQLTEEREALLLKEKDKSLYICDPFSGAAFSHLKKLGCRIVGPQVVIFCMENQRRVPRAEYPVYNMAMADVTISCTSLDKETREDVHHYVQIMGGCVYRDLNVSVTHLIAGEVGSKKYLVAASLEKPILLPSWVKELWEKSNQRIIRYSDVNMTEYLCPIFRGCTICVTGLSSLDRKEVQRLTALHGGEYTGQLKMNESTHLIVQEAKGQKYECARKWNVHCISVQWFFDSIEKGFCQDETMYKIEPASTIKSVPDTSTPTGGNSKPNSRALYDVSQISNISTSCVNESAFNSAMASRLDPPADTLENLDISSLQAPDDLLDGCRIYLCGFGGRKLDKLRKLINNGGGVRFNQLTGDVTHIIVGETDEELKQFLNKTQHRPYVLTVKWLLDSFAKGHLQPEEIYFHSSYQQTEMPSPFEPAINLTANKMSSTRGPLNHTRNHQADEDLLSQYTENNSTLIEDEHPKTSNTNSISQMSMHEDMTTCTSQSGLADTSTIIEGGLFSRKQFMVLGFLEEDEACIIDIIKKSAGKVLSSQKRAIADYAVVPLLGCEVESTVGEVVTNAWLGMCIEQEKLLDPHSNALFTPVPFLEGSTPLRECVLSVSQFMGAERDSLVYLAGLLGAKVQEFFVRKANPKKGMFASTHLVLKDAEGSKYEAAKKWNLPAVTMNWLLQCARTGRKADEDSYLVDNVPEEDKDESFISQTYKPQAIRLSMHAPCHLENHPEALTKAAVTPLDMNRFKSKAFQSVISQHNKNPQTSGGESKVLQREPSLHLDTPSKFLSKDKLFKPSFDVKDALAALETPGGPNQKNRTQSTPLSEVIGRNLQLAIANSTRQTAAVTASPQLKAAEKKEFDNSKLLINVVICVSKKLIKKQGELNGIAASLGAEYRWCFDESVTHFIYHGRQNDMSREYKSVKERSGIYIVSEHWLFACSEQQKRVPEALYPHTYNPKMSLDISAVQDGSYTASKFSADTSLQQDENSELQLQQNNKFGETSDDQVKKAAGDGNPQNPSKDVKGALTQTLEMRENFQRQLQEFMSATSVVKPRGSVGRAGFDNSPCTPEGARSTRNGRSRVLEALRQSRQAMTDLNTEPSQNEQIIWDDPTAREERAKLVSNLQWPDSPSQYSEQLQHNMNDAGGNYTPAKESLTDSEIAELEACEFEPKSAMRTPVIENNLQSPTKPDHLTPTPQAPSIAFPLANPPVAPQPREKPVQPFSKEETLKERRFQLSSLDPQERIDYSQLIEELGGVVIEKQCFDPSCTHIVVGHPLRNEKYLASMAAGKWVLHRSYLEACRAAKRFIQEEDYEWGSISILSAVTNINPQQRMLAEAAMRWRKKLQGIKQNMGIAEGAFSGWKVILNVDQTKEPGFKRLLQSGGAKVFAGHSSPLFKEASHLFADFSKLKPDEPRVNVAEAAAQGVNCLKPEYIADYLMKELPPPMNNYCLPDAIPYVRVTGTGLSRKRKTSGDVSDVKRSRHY
Sequence of GST-XtopBP1 (1197-1513) (chain, as listed by the source): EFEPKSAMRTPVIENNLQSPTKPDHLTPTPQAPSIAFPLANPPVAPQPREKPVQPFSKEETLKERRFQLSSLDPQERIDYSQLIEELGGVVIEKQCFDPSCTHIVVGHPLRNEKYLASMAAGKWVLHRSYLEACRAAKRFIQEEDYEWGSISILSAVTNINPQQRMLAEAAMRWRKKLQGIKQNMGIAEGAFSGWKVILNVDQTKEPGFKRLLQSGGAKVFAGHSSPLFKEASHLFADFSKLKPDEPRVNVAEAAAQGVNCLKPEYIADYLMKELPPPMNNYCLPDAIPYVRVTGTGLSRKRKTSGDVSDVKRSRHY
Sequence of GST-XtopBP1 (972-1279) (chain, as listed by the source): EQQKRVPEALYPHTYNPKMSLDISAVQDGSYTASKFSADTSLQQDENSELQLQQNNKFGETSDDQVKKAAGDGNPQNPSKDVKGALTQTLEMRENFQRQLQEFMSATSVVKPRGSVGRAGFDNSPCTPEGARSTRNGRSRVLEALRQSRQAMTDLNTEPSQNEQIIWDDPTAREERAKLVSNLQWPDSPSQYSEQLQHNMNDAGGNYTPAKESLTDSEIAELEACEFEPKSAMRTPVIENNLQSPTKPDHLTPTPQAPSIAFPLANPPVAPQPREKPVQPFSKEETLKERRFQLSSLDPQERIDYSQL
Sequence of GST-XtopBP1 (972-1279)-W1138R (chain, as listed by the source W1138R): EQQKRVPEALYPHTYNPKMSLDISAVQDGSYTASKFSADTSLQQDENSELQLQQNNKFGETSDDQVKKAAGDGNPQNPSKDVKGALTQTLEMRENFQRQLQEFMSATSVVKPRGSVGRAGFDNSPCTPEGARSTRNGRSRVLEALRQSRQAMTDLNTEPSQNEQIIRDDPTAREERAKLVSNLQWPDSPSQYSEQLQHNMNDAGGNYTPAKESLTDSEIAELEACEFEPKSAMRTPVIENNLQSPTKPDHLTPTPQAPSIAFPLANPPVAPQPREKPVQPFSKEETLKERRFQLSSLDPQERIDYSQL

Xatr (endogenous Xenopus ATR in egg extracts)
phosphorylation of 35S-Xchk1 in egg extracts (electrophoretic mobility) [1]: none of the ΔRQLQ, ΔWDDP, or W1138R mutants of the 972-1279 fragment could induce ectopic activation of Xchk1 in these extracts | phosphorylation of 35S-Xchk1 in egg extracts (electrophoretic mobility) [2]: none of the ΔRQLQ, ΔWDDP, or W1138R mutants of the 972-1279 fragment could induce ectopic activation of Xchk1 in these extracts | phosphorylation of 35S-Xchk1 in egg extracts (electrophoretic mobility) [3]: none of the ΔRQLQ, ΔWDDP, or W1138R mutants of the 972-1279 fragment could induce ectopic activation of Xchk1 in these extracts | checkpoint-dependent phosphorylation of Xchk1 in XtopBP1-depleted egg extracts with aphidicolin [4]: addition of wild-type His6-XtopBP1 to the XtopBP1-depleted extract was able to rescue the phosphorylation of Xchk1 fully | phosphorylation of 35S-Xchk1 in egg extracts (electrophoretic mobility) (GST-XtopBP1 (972-1279)): the 972-1279 fragment could elicit a very robust phosphorylation of Xchk1 | checkpoint-dependent phosphorylation of Xchk1 in XtopBP1-depleted egg extracts with aphidicolin [5]: the W1138R mutant could not restore the phosphorylation of Xchk1 | phosphorylation of 35S-Xchk1 in egg extracts (electrophoretic mobility) (GST-XtopBP1 (1197-1513)): the GST-XtopBP1 (1197-1513) fragment, which does not activate Xatr, did not induce any phosphorylation of Xchk1 in egg extracts
